From patent US20090004680A1

Molecular target: Mouse synaptosomes (BoNT/A acceptor on a mouse synaptosome preparation)

Inactivated BoNT/A (toxoid) (from UniProt P0DPI0 2-1296)
maximum percent inhibition: 98%
